As a reminder, the stoichiometry N is the number of molecules, sites or subunits per partner or assembly.

In the experiment the target is thyroglobulin of normal mice (mouse (endogenous in thyroid tissue)) (UniProt O08710). Nature of the experiment: native gel or EMSA. (Mobility shift assays separate free from complexed probe on a gel.)

“thyroglobulin of normal mice, O08710 21-2766”: the stoichiometry N came to 2.

The record behind these values is article PMC2120816.
